In article PMC10966351:

Target: BlaC P107T (Mycobacterium tuberculosis)
Assay: crystal structure; sitting-drop vapor diffusion at 20°C, protein 10 mg/mL in 100 mM sodium phosphate buffer pH 6.4; four molecules in the asymmetric unit

Q: BlaC P107T (enzyme) was tested. Which stoichiometry N did it give?
A: 2
